We go through 10 molecules from patent US20220195064A1 (Memorial Sloan Kettering, published 2022).

The target of assay [1] is T1, recombinant soluble human CD371 extracellular domain (His 65-Ala 265) with polyhistidine tag (human, UniProt Q5QGZ9 65-265, biotinylated in the scFv BLI measurements (site not stated)).
T1 construct: range 65-265; also called soluble CD371; recombinant CD371; not shown: polyhistidine tag
T1 sequence (looked up): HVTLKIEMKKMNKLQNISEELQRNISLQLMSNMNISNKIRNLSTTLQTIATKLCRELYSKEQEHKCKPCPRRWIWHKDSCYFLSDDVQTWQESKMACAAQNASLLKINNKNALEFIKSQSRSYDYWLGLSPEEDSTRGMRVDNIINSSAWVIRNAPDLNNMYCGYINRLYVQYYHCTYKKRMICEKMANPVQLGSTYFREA
As to the kind of experiment: BLI, Fc fusion captured with anti-Fc antibody, soluble CD371 as analyte. From the text: (§1) Affinity measurements of the B10 variants determined by biolayer interferometry by capturing the IgG and Fc fusions with anti-Fc antibody, and using soluble CD371 as analyte. For scFv affinity measurements, biotinylated CD371 was captured with streptavidin, and soluble scFv was used as analyte. […] Consistent with the flow cytometry results, the full IgG and the scFv-Fc fusions bound more strongly than the scFvs (Table 8), presumably due to their bivalent interaction, resulting in an avidity effect. Weak binding of the 1B10 scFv in the VH-VL Orientation was observed but a dissociation constant could not be calculated by any curve fit method.

Assay [2] concerns the target T1, recombinant soluble human CD371 …. In words: BLI, biotinylated CD371 captured with streptavidin, soluble scFv as analyte.
Source text: as §1

In assay [3] the target is T2, human CD371 on the cell surface (OCI AML cells; HEK293 cells expressing human CD371) (human, UniProt Q5QGZ9 1-265).
T2 construct: whole, on cells; The transfected construct is not specified further; also called CD371 cells; CD371+ AML cell line OCI
T2 sequence (looked up): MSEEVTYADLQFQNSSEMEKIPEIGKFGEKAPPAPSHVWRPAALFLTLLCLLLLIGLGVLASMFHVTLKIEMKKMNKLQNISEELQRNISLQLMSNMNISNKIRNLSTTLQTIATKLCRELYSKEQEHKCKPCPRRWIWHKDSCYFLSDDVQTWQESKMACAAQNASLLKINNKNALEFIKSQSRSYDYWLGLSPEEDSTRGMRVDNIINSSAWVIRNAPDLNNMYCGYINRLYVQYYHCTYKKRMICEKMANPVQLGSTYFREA
In words: flow cytometry of monoclonal phage prep on HEK293H cells transfected with human CD371 against wild type HEK293H; detection by anti-M13 mAb and PE anti-mouse. As to the method: Once selected, positive scFv clones are tested for their binding to CD371 (e.g., human CD371) on cell surfaces by flow cytometry. Briefly, phage clones are incubated with HEK293H cells over-expressing CD371. The cells are washed and then incubated with a M13 coat protein mAb. Cells are washed again and labeled with a PE-labeled anti-mouse Fab₂ prior to flow cytometry.

The target in assay [4] is T1, recombinant soluble human CD371 …. As to the kind of experiment: phage ELISA on human CD371, anti-M13 detection. The method, then:
(§2) A proprietary naïve, semi-synthetic scFv phage display library was screened for antibodies that bind to the CD371 protein by using standard solid phase phage display panning techniques. Briefly, recombinant CD371 was immobilized on a polystyrene surface followed by blocking with about 5% milk and incubation with the phage library. Subsequent washing, elution and phage amplification steps were performed to complete each round of biopanning. Three rounds of panning were completed using amplified CD371 binder-enriched phage pools from the previous round of panning as input for subsequent rounds.

The target in assay [5] is T3, recombinant extracellular domain of murine CD371 (Thr 67-Arg 267) with polyhistidine tag (murine, UniProt Q504P2 67-267).
T3 construct: range 67-267; also called mouse homolog of CD371; not shown: polyhistidine tag
T3 sequence (looked up): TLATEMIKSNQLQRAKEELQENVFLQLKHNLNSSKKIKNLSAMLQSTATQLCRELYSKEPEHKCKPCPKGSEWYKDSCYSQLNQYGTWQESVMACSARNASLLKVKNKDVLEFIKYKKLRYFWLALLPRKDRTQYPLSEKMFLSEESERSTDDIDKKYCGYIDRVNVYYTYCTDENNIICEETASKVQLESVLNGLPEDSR
In words: phage ELISA, anti-M13 detection. The method, then: as §2

Assay [6] concerns the target T1, recombinant soluble human CD371 …. In words: BLI, IgG captured with anti-Fc antibody, soluble CD371 as analyte.
Source text: as §1

B1: B10 scFv-Fc fusion, VL-VH orientation (Fc fusion)
chain: DIVMTQSPDSLAVSLGERATINCKSSQSVLDSYNNENNLAWYQQKPGQPPKLLIYWASTRESGVPDRFSGSGSGTDFTLTISSLQAEDVAVYYCQQYTSEPITFGQGTKVEIKGGGGSGGGGSGGGSGGGGSEVQLLESGGGLVQPGGSLRLSCAASGFTFSDYQMSWVRQAPGKGLEWVSGIQGGGGSTYYADSVKGRFTISRDNSKNTLYLQMNSLRAEDTAVYYCAREMWRGDYYSGMDVWGQGTTVTVSS
notes: also called VL-VH-Fc; not shown: Fc region
As for B1, in assay [1], the Kd worked out at 7 nM, the koff came out at 0.00206 s⁻¹ and the kon worked out at 295000 M⁻¹ s⁻¹.

B2: B10 scFv in the VL-VH orientation (scFv)
scFv: DIVMTQSPDSLAVSLGERATINCKSSQSVLDSYNNENNLAWYQQKPGQPPKLLIYWASTRESGVPDRFSGSGSGTDFTLTISSLQAEDVAVYYCQQYTSEPITFGQGTKVEIKGGGGSGGGGSGGGSGGGGSEVQLLESGGGLVQPGGSLRLSCAASGFTFSDYQMSWVRQAPGKGLEWVSGIQGGGGSTYYADSVKGRFTISRDNSKNTLYLQMNSLRAEDTAVYYCAREMWRGDYYSGMDVWGQGTTVTVSS
notes: Soluble scFv; also called VL-VH scFv; 1B10 scFv VL-VH
Regarding B2, in assay [2], the Kd amounted to 16 nM, the koff worked out at 0.00952 s⁻¹ and the kon came out at 599000 M⁻¹ s⁻¹.

B3: B031_P1_PH1D6 monoclonal phage prep (scFv displayed on phage) (scFv, V domains shown)
VH: EVQLLESGGGLVQPGGSLRLSCAASGFTFTDYAMSWVRQAPGKGLEWVSDIDGSGGSTDYADSVKGRFTISRDNSKNTLYLQMNSLRAEDTAVYYCALELGATTVYWGQGTLVTVSS
VL: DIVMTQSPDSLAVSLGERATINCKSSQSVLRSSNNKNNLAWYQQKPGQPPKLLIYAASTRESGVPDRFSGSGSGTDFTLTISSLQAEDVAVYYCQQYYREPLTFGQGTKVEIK
notes: Tested as an scFv on M13 phage
On to B3, for which the results for the binding result in assay [3], in assay [4] and in assay [5] were “binds”, “binds” and “no binding”, respectively.

B4: B031_P1_PH2A11 monoclonal phage prep (scFv displayed on phage) (scFv, V domains shown)
VH: EVQLLESGGGLVQPGGSLRLSCAASGFTFTSTQMSWVRQAPGKGLEWVSEISGYGGSTYYADSVKGRFTISRDNSKNTLYLQMNSLRAEDTAVYYCAKDTEVSGDAFDIWGQGTMVTVSS
VL: EIVLTQSPGTLSLSPGERATLSCRASQSVDSSNLAWYQQKPGQAPRLLIYGASSRATGIPDRFSGSGSGTDFTLTISRLEPEDFAVYYCQQYRSWPITFGQGTKVEIK
notes: as for B3
Turning to B4, the values for the binding result in assay [4] and in assay [5] were “binds” and “no binding”, respectively.

B5: B031_P1_PH2E4 monoclonal phage prep (scFv displayed on phage) (scFv, V domains shown)
VH: EVQLLESGGGLVQPGGSLRLSCAASGFTFTSYYMSWVRQAPGKGLEWVSGISGSGDSTSYADSVKGRFTISRDNSKNTLYLQMNSLRAEDTAVYYCAREAGGDYDSGAFDIWGQGTMVTVSS
VL: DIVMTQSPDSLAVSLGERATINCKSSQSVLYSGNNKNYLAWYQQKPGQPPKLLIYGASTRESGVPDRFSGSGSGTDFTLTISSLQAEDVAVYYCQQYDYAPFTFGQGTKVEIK
notes: as for B3
In the case of B5, the binding result in assay [4] is recorded as “binds”; in assay [5], “no binding”.

B6: B031_P1_PH1C3 monoclonal phage prep (scFv displayed on phage) (scFv, V domains shown)
VH: EVQLLESGGGLVQPGGSLRLSCAASGFTFTSYAMSWVRQAPGKGLEWVSGIDGSGGGTNYADSVKGRFTISRDNSKNTLYLQMNSLRAEDTAVYYCARAYYDILTGYPVDGMDVWGQGTTVTVSS
VL: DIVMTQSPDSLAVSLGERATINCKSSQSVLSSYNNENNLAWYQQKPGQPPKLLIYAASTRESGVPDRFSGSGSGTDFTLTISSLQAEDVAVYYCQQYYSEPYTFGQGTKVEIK
notes: as for B3
For B6, the binding result in assay [5] was “no binding”.

B7: B031_P1_PH2E8 monoclonal phage prep (scFv displayed on phage) (scFv, V domains shown)
VH: EVQLLESGGGLVQPGGSLRLSCAASGFTFSSYAMSWVRQAPGKGLEWVSEIDGEGGYTNYADSVKGRFTISRDNSKNTLYLQMNSLRAEDTAVYYCAREGVDYDILTGYYPYGMDVWGQGTTVTVSS
VL: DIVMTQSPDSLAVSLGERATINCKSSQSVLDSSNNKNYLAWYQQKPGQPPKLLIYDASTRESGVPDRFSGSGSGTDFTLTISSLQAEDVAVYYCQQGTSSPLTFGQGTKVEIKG
notes: as for B3
As for B7, the binding result in assay [5] is “no binding”.

B8: B10 reformatted to human IgG1 (antibody, V domains shown)
VH: EVQLLESGGGLVQPGGSLRLSCAASGFTFSDYQMSWVRQAPGKGLEWVSGIQGGGGSTYYADSVKGRFTISRDNSKNTLYLQMNSLRAEDTAVYYCAREMWRGDYYSGMDVWGQGTTVTVSS
VL: not shown
notes: Human IgG1; also called 1B10 IgG1; B031_P1_PH1B10 IgG1
With B8, in assay [6], the Kd came out at 9.5 nM, the koff was determined as 0.00153 s⁻¹ and the on-rate constant (kon) was 160000 M⁻¹ s⁻¹.

B9: B031_P1_PH1B10 monoclonal phage prep (scFv displayed on phage) (scFv, V domains shown)
VH: EVQLLESGGGLVQPGGSLRLSCAASGFTFSDYQMSWVRQAPGKGLEWVSGIQGGGGSTYYADSVKGRFTISRDNSKNTLYLQMNSLRAEDTAVYYCAREMWRGDYYSGMDVWGQGTTVTVSS
VL: not shown
notes: Tested as an scFv on M13 phage (supernatant or phage prep)
On to B9, for which the binding result in assay [5] was “no binding”.

B10: B10 scFv-Fc fusion, VH-VL orientation (Fc fusion)
chain: EVQLLESGGGLVQPGGSLRLSCAASGFTFSDYQMSWVRQAPGKGLEWVSGIQGGGGSTYYADSVKGRFTISRDNSKNTLYLQMNSLRAEDTAVYYCAREMWRGDYYSGMDVWGQGTTVTVSSGGGGSGGGGSGGGSGGGGSDIVMTQSPDSLAVSLGERATINCKSSQSVLDSYNNENNLAWYQQKPGQPPKLLIYWASTRESGVPDRFSGSGSGTDFTLTISSLQAEDVAVYYCQQYTSEPITFGQGTKVEIK
notes: also called VH-VL-Fc; not shown: Fc region
In the case of B10, in assay [1], the Kd amounted to 4.2 nM, the koff amounted to 0.000968 s⁻¹ and the kon turned out to be 232000 M⁻¹ s⁻¹.
